Test results from paper PMC11381518, “Human cell surface-AAV interactomes identify LRP6 as blood-brain barrier transcytosis receptor and immune cytokine IL3 as AAV9 binder” (Nature Communications, 2024).

Legend:
Assay in all cases: pull-down; prey AAVs mixed with His-tagged bait protein and Ni-NTA resin in DPBS with 20 mM imidazole, 1 h at 4 °C; eluate analysed by Western blot with anti-VP1/VP2/VP3 and anti-6xHis
Details in all cases: both partners purified
AAV9-X1.1 capsid = biological target: T1, AAV9-X1.1 capsid (adeno-associated virus 9, UniProt Q6JC40 1-736, VR IV AA452-458 NGSGQNQ to DGAATKN | VR VIII AA587-590 AQ - - - - - - - AQ to …)
T1 construct: AAV9 capsid protein VP1 with changes in VR-IV and VR-VIII; numbers count on VP1; also called AAV-X1.1; source: HEK293 cells, triple transfected, purified (iodixanol gradient); copies: 60

AAV.CAP-Mac capsid = biological target: T2, AAV.CAP-Mac capsid (adeno-associated virus 9, UniProt Q6JC40 1-736, VR VIII AA587-590 AQ - - - - - - - AQ to AQLNTTKPIAQ)
T2 construct: AAV9 capsid protein VP1 with an insertion in VR-VIII; numbers count on VP1; source: HEK293 cells, triple transfected, purified (iodixanol gradient); copies: 60

AAV9 capsid = biological target: T3, AAV9 capsid (adeno-associated virus 9, UniProt Q6JC40 1-736)
T3 construct: AAV9 capsid protein VP1; numbers count on VP1; Assembled capsid with a packaged genome; also called AAV9 (parent of vectors below); source: HEK293 cells, triple transfected, purified (iodixanol gradient); copies: 60

Measured: binding result

B1: human Adeno-Associated Virus Receptor (AAVR) PKD2 domain (AA 401-498) tagged with 6xHis (domain or fragment)
chain: EPRKNRPPIAIVSPQFQEISLPTTSTVIDGSQSTDDDKIVQYHWEELKGPLREEKISEDTAILKLSKLVPGNYTFSLTVVDSDGATNSTTANLTVNKA
notes: human AAVR (KIAA0319L), PKD2 domain, AA 401-498; source: E. coli BL21(DE3)-RIPL, purified (Ni-NTA)
binds: AAV9-X1.1 capsid | AAV.CAP-Mac capsid | AAV9 capsid
